Test results: US20120237442A1

Target: CH1-AD1-Fab-h679
Experiment: equilibrium gel filtration analysis of the binary complex (DDD1 dimer docking to AD1); complex also seen by SE-HPLC

Sequence of CH1-AD1-Fab-h679 (heavy, as listed by the source): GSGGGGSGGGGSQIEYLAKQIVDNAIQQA

With CH1-DDD1-Fab-hMN-14 the Kd was 8 nM.
